In this assay the target is native B7H3 on cells (UniProt Q5ZPR3). In words: flow cytometry on cells with native B7H3 (taken as H358), anti-His-tag iFluor 488 detection. In general terms: A flow cytometer gives signals particle by particle.

In patent US20260085122A1 one finds EC50 and MFI data, which are given here for two molecules.

Sequence of native B7H3 on cells (Q5ZPR3 29-534): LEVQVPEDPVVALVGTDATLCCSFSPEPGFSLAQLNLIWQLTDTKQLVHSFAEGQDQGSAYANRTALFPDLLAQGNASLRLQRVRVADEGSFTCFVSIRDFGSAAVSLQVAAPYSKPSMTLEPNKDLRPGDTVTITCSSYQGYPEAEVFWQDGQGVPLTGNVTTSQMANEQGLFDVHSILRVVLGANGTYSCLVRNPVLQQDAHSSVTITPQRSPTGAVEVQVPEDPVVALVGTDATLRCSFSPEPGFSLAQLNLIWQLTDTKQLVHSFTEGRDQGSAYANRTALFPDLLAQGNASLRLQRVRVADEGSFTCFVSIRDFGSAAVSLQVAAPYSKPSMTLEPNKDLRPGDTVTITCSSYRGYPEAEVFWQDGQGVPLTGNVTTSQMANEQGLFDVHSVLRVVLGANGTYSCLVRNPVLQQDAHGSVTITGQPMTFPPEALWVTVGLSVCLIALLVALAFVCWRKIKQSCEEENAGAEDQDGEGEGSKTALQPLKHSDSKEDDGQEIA

B1: VHH1_C001 (VHH)
VHH: EVQLVESGGGLVQPGGSLRLSCAASPRTFQTYFMGWFRQAPGKELEWVSVINWSGGTSYYKDSVKGRFTISRDNSKNTLYLQMNSLRAEDTAVYYCAAKGSGTYDREGEYDYWGQGTLVTVSS
The EC50 is the midpoint of the concentration-response curve. Lower therefore signals higher potency in that assay. Molecule B1 yielded a half-maximal effective concentration (EC50) of 6.29 nM and an MFI of 496000.

B2: VHH1_C002 (VHH)
VHH: EVQLLESGGGLVQPGGSLRLSCAASGFTFSDYHMSWVRQAPGKGLEWVSGILNTGLSPTYAATVTGRFTISRDNSKNTLYLQMNSLRAEDTAVYYCAQGYYRATPSQANRGQGTLVTVSS
On to B2, for which the EC50 is 77 nM and the MFI turned out to be 539000.
